Experimental data from patent US20160108123A1 (Novartis, published 2016).

B1: BAP058-hum04 (antibody, human IgG4 S228P, kappa, V domains shown)
VH: EVQLVQSGAEVKKPGESLRISCKGSGYTFTSYWMYWVRQAPGQGLEWMGRIDPNSGSTKYNEKFKNRVTISVDTSKNQFSLKLSSVTAADTAVYYCARDYRKGLYAMDYWGQGTTVTVSS
VL: EIVLTQSPDFQSVTPKEKVTITCKASQDVGTAVAWYLQKPGQSPQLLIYWASTRHTGVPSRFSGSGSGTDFTFTISSLQPEDIATYYCQQYNSYPLTFGQGTKVEIKR
notes: Humanized IgG4(S228P)/human kappa mAb expressed in CHO cells
B2: BAP058-hum11 (antibody, human IgG4 S228P, kappa, V domains shown)
VH: EVQLVQSGAEVKKPGATVKISCKVSGYTFTSYWMYWVRQATGQGLEWMGRIDPNSGSTKYNEKFKNRVTITADKSTSTAYMELSSLRSEDTAVYYCARDYRKGLYAMDYWGQGTTVTVSS
VL: DVVMTQSPLSLPVTLGQPASISCKASQDVGTAVAWYQQKPGQAPRLLIYWASTRHTGVPSRFSGSGSGTEFTLTISSLQPDDFATYYCQQYNSYPLTFGQGTKVEIKR
notes: as for B1
B3: murine anti-PD-L1 monoclonal antibody BAP058 (antibody, V domains shown)
VH: QVHLQQPGAELVKPGASVKLSCKASGYTFTSYWMYWVKQGPGRGLEWIGRIDPNSGSTKYNEKFKNKATLTVDKSSSTAYMQLSSLTSEDSAVYYCARDYRKGLYAMDYWGQGTSVTVSS
VL: DIVMTQSHKFMSTSVGDRVSITCKASQDVGTAVAWYQQKPGQSPKLLIYWASTRHTGVPDRFTGSGSGTDFTLTISNVQSEDLADYFCQQYNSYPLTFGAGSKLELK
notes: Murine mAb; also called murine mAb BAP058; murine parent mAb
B4: BAP058-hum13 (antibody, human IgG4 S228P, kappa, V domains shown)
VH: EVQLVQSGAEVKKPGATVKISCKVSGYTFTSYWMYWVRQARGQRLEWIGRIDPNSGSTKYNEKFKNRFTISRDNSKNTLYLQMNSLRAEDTAVYYCARDYRKGLYAMDYWGQGTTVTVSS
VL: AIQLTQSPSSLSASVGDRVTITCKASQDVGTAVAWYLQKPGQSPQLLIYWASTRHTGVPSRFSGSGSGTDFTFTISSLEAEDAATYYCQQYNSYPLTFGQGTKVEIKR
notes: as for B1

What was measured:
human PD-L1 protein = target: T1, human PD-L1 protein (human, UniProt Q9NZQ7 19-238, limits assumed); assay: Biacore T-100; IgG captured by anti-human Fab on CM5 chip, PD-L1 flowed over (100-1.56 nM), 1:1 fit
T1 construct: Construct not described
Procedure: (§1) Immobilization was done at 25° C. using a flow rate of 10 μl/min. […] Test antibody was captured on Flow cell FC2, FC3 and FC4. […] Run Biacore Wizards Kinetic/Affinity: association time 120 sec, dissociation 600 sec. (Running buffer HBS-EP+BSA 0.25 mg/ml, Regeneration buffer: 10 mM glycine HCl pH 2.1). Data analyses were done with Biacore T-100 Evaluation software version 2, fit on 1:1.

cynomolgus PD-L1 protein = target: T2, cynomolgus PD-L1 protein (cynomolgus, UniProt G7PSE7 19-238); assay: as above
T2 construct: also called Monkey PD-L1; cyno PD-L1
Procedure: as §1

mouse PD-L1 protein = mouse PD-L1 protein (mouse, UniProt Q9EP73 19-238, limits assumed); assay: as above
Procedure: as §1

rat PD-L1 protein = rat PD-L1 protein (rat, UniProt D4AE25 19-239); assay: as above
Procedure: as §1

[1] = target: T3, human PD-L1 expressed on 300.19 cells (human, UniProt Q9NZQ7 19-290); assay: competition FACS against Alexa 488-labeled murine BAP058 on PD-L1-expressing 300.19 cells
T3 construct: whole, on cells; also called huPD-L1; PD-L1-expressing 300.19 cells
Procedure: (§2) Incubations with the mAb mixtures having different concentration ratios of test mAb to labeled mAb was at 4° C. for 30 min. Bound labeled murine mAb was then quantified using a FACS machine. The experiment was performed twice.

[2] = target: T3, human PD-L1 expressed on 300.19 cells; assay: blocking of PE-labelled PD-1-Ig (0.7 µg/mL) binding to PD-L1-expressing 300.19 cells, FACS, 4 C, 4 h
Procedure: (§3) Bound fluorescence was then measured using FACS and IC₅₀ values determined using Prism software.

[3] = target: T3, human PD-L1 expressed on 300.19 cells; assay: semi-quantitative ranking in the binding studies (4th column, p-1058; FACS data, p-1056); high number = poorer binder; the column's head says only 'Rank'
[4] = target: T3, human PD-L1 expressed on 300.19 cells; assay: FACS competition on PD-L1-expressing 300.19 cells; competitor Alexa 488-labeled murine BAP058
Procedure: as §2

[5] = target: T3, human PD-L1 expressed on 300.19 cells; assay: FACS competition; blocking of PE-labelled PD-1-Ig (0.7 ug/mL) on PD-L1-expressing 300.19 cells
Procedure: as §3

T3 sequence (Q9NZQ7 19-290): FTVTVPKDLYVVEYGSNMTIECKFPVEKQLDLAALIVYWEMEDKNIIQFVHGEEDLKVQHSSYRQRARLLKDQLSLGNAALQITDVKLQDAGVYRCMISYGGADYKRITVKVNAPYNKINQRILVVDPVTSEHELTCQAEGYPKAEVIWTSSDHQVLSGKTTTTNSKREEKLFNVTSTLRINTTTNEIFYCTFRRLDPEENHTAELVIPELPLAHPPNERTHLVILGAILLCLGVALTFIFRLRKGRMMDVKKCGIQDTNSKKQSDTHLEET
T1 sequence (Q9NZQ7 19-238 limits assumed): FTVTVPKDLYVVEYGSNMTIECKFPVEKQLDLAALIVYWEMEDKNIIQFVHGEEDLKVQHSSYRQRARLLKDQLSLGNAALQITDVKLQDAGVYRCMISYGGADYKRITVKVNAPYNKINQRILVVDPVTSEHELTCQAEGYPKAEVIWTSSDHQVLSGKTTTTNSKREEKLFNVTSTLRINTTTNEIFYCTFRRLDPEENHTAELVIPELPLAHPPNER
T2 sequence (G7PSE7 entry or part of it): as the sequence (Q9NZQ7 19-238 limits assumed) above, with A33T, A34S, S62N, R68Q, Q82R, F173L, T185A, T192I, H215L counted along it
rat PD-L1 protein, sequence (D4AE25 entry or part of it limits assumed): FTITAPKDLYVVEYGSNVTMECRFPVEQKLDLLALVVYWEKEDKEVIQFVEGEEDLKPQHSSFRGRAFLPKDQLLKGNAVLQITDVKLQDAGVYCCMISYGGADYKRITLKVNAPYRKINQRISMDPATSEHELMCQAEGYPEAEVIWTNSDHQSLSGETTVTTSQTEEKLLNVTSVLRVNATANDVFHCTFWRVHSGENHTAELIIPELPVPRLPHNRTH
mouse PD-L1 protein, sequence (Q9EP73 19-238 limits assumed): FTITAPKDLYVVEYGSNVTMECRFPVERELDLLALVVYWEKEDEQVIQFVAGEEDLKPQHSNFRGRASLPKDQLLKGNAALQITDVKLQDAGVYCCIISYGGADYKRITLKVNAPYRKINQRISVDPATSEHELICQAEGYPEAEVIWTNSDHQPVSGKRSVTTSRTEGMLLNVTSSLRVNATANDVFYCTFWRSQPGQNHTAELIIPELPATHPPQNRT

| Binder | Kd (human PD-L1 protein) [nM] | Kd (cynomolgus PD-L1 protein) [nM] | Kd (mouse PD-L1 protein) [nM] | Kd (rat PD-L1 protein) [nM] | Comp. binding (ratio conc. test mAb / conc. labelled murine BAP058 at the IC50) [1] | IC50 (read off the curve) [2] [µg/mL] | Rank [3] | ratio for the IC50 value (concentration of test mAb over labelled murine BAP058) [4] | IC50 [5] [nM] |
| --- | --- | --- | --- | --- | --- | --- | --- | --- | --- |
| B1 | 2.14 | 0.369 | 77.4 | 6.14 | 1.13 | ~0.04 | 3 | – | – |
| B2 | 0.931 | 0.735 | 0.075 | 1.36 | 1.3 | ~0.04 | 4 | – | – |
| B3 | – | – | – | – | – | – | – | 1.34 | 0.3 |
| B4 | 0.137 | 0.431 | 0.04 | 0.431 | 2.91 | ~0.04 | 2 | – | – |
